The text below walks through data of patent publication US20220389111A1 (SHANGHAI EPIMAB BIOTHERAPEUTICS, published 2022).

In assay [1] the target is T1, human CD39 on the cell membrane (CHO-K1-human CD39 stable cell line); SK-MEL-28 melanoma cells; human CD4+ T … (human, UniProt P49961 1-510).
T1 construct: Overexpressed on CHO-K1 cells or endogenous on SK-MEL-28 / T cells; the assay field says which cells; also called huCD39; CHO-K1-huCD39
T1 sequence: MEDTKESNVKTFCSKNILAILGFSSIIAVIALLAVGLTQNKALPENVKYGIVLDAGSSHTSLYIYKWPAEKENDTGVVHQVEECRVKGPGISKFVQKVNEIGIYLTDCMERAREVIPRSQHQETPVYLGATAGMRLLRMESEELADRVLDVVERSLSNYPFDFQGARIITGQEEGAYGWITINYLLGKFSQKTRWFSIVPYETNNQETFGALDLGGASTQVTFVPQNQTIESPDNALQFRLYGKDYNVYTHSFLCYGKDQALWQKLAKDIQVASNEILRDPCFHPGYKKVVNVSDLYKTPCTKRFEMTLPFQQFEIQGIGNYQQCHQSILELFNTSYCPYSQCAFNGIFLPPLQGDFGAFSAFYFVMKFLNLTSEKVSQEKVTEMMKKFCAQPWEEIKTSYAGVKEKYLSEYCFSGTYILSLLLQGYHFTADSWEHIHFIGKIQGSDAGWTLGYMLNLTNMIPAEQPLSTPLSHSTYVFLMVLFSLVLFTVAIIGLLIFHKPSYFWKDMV
In words: FACS on CHO-K1-human CD39 cells. How it is done: (§1) The ability of the purified antibodies to bind to cell membrane human CD39, cynomolgus monkey CD39, or mouse CD39 was determined by FACS analysis. CHO-K1 cells stably transfected to overexpress human CD39, cynomolgus monkey CD39, or mouse CD39 (CHO-K1-huCD39 cells, CHO-K1-cyCD39 cells, and CHOK1-muCD39 cells) were generated for use in this assay. Briefly, SK-MEL-28 melanoma cells (ATCC) or CD39 overexpressing stable CHO cell lines were resuspended in PBS containing 2% FBS (FACS buffer) and seeded at 1-5×10⁵ cells/well into U-bottomed plates. Anti-CD39 mAbs or isotype control antibodies diluted in FACS buffer were added to the wells and incubated for 1 hour at 4° C. After washing with FACS buffer, 1:1000 diluted Fluorescence-labeled secondary antibody (Life Technologies/ThermoFisher Scientific) were added and incubated for 30 min. at 4° C. Unbound secondary mAb was removed by washing with FACS buffer three times, and the samples were then read on a FACS instrument. The data were processed by GraphPad software.

Assay [2] concerns the target T2, cynomolgus monkey CD39 on CHO-K1 cells (cynomolgus monkey, UniProt A0A7N9DGH8 1-510).
T2 construct: whole, on cells; also called CHO-K1-cyCD39; CHO-K1-cyno CD39
T2 sequence: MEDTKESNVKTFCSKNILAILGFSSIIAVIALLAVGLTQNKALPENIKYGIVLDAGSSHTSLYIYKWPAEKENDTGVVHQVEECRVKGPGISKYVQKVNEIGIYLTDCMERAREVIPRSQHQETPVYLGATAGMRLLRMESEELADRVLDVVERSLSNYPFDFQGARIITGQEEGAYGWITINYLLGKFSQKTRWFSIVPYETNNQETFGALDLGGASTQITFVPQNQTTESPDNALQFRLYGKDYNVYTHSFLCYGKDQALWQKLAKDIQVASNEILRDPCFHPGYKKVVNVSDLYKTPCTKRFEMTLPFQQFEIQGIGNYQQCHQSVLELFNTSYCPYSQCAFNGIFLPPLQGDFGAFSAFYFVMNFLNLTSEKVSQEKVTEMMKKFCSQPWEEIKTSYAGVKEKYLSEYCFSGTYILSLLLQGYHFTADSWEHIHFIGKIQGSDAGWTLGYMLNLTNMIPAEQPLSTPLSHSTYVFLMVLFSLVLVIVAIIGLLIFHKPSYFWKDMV
Description: FACS on CHO-K1-cyno CD39 cells. How it is done:
as §1

For assay [3], the target named is T1, human CD39 on the cell membrane …. Description: cell-based or functional assay.
Assay [4] has the same target. Description: cell-based or functional assay. This is another data set of the same source.
For assay [5] the target is unchanged. In words: FACS on CHO-K1-human CD39 cells. How it is done: as §1
(§2) Accordingly, a G55A mutation was introduced in the CDR-H2 in HuEM0004-38-17, -18, and -19 to generate HuEM0004-38-21 (SEQ ID NO:32 (VH) and SEQ ID NO:17 (VK)), HuEM0004-38-22 (SEQ ID NO:33 (VH) and SEQ ID NO:17 (VK)), and HuEM0004-38-23 (SEQ ID NO:34 (VH) and SEQ ID NO:17 (VK)). The three humanized anti-CD39 antibodies were characterized by FACS binding assay and for cell-based inhibition of ATPase activity.
This is another data set of the same source.

Assay [6] has the same target. Description: FACS on SK-MEL-28 cells (endogenous human CD39). As to the method: as §1, §2
The target of assay [7] is T3, huCD39-ECD-His (human, UniProt P49961 38-478).
T3 construct: also called C-terminally hexahistidine-tagged human CD39 extracellular domain
T3 sequence: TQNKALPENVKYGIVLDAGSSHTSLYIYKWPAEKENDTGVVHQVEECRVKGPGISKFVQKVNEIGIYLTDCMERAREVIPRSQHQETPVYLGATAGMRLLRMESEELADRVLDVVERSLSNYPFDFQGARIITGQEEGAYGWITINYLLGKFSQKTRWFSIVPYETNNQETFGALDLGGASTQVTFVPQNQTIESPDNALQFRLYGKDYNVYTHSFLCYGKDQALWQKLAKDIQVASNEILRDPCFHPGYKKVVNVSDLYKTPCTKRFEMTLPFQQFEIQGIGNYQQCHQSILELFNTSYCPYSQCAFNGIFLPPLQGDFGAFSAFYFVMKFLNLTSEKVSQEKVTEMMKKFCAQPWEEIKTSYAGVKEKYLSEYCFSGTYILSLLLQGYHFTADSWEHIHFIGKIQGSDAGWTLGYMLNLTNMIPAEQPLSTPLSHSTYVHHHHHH
Description: BLI (Octet RED96), antibody captured on AHC biosensor, antigen in solution. As to the method:
Anti-CD39 antibodies were characterized for affinities and binding kinetics using the Octet®RED96 biolayer interferometry system (Pall FortéBio LLC). Purified anti-CD39 antibodies were captured by Anti-Mouse IgG Fc Capture (AMC) biosensors or Anti-Human IgG Fc Capture (AHC) biosensors at a concentration of 100 nM for 30 seconds. Biosensors were then dipped into running buffer (1X pH7.2 PBS, 0.05% Tween 20, 0.1% BSA) for 60 seconds to check baseline. Binding was measured by dipping sensors into purified recombinant human CD39 protein, 3-fold serial diluted from 200 nM, for 120 seconds. Dissociation was followed by dipping sensors into running buffer for 600 seconds. The association and dissociation curves were fitted to a 1:1 Langmuir binding model using Fortebio Data Analysis software (Pall FortéBio LLC).

Assay [8] deals with T2, cynomolgus monkey CD39 on CHO-K1 cells. Description: FACS on CHO-K1-cyno CD39 cells. How it is done:
as §1, §2
The source holds these as a separate data set.

Assay [9] deals with T1, human CD39 on the cell membrane …. In words: cell-based or functional assay. The source holds these as a separate data set.

Read-outs that look alike come from different tables or passages of the source.

B1: mAb636 (antibody, V domains shown)
VH: QVQLQQPGTELVMPGASVTLSCKASGYSFISYWMHWVKQRPGQGLEWIGEIDPSDDYTNYNQNFKGKATLTVDRSSSTAYMQLNSLTSEDSAVYYCAREENGIYYYNKGYLDVWGTGTTVTVSS
VL: DIVMTQTAFSNPVTLGTSASISCRSSKSLLHSNGITYLYWYLQKPGQSPQVLIYQMSNLASGVPDRFSCSGSGTDFTLRITRVEAEDVGFYYCAQNLELPYTFGGGTKLEMK
notes: mouse anti-human CD39 hybridoma mAb, IgG2a, κ
B1: the EC50 in [1] is 12.7 nM; in assay [2] it was 10.6 nM.

B2: HuEM0004-38-22 (antibody, human IgG1, kappa, L234A L235A, V domains shown)
VH: EVQLVQSGAEVKKPGASVKVSCKASGYTFTSFWMHWVRQAPGQGLEWMGNINPRNAATKYNEKFRSRVTLTADKSISTAYMELSRLRSDDTAVYYCAREDYDEIYYAMDSWGQGTTVTVSS
VL: ENVLTQSPATLSLSPGERATLSCSASSSVIYMYWFQQKPGQSPRVLIYDTSNLASGVPARFSGSGSGTDYTLTISSLEPEDFAVYYCQQWSTYPLTFGQGTKLEIKR
notes: humanized mAb638 with G55A
Take B2: in assay [3], the “cell-based CD39 ATPase inhibition assay (SK-MEL-28 cells), concentration of essentially complete inhibition” value (from here on “cell-based CD39 ATPase inhibition assay”) was approximately 1 nM. Also, the “IC50 (read off the curve), cell-surface hCD39 ATPase activity” value (“IC50 … cell-surface hCD39 ATPase activity” below) in assay [4] was approximately 0.2 nM. Moreover, the EC50 in assay [5] was 7.21 nM. The same molecule had an EC50 in [6] of 4.71 nM. Besides, in [7], the dissociation constant Kd worked out at 2.53 nM, the koff was 0.000348 s⁻¹ and the kon is 138000 M⁻¹ s⁻¹. In addition, the EC50 in assay [8] amounted to 7.42 nM.

B3: HuEM0004-38-21 (antibody, human IgG1, kappa, L234A L235A, V domains shown)
VH: EVQLVQSGAEVKKPGASVKVSCKASGYTFTSFWMHWVRQAPGQGLEWMGNINPRNAATKYNEKFRSRVTMTADKSISTAYMELSRLRSDDTAVYYCAREDYDEIYYAMDSWGQGTTVTVSS
VL: ENVLTQSPATLSLSPGERATLSCSASSSVIYMYWFQQKPGQSPRVLIYDTSNLASGVPARFSGSGSGTDYTLTISSLEPEDFAVYYCQQWSTYPLTFGQGTKLEIKR
notes: humanized mAb638 with G55A
B3: in assay [3], the “cell-based CD39 ATPase inhibition assay” value is approximately 1 nM. Moreover, the “IC50 … cell-surface hCD39 ATPase activity” value in assay [4] is approximately 0.2 nM. In assay [5], this molecule registered an EC50 of 6.34 nM. In assay [6], this molecule registered an EC50 of 4.75 nM. Also, in assay [7], the Kd was found to be 2.28 nM, the off-rate constant (koff) is 0.000316 s⁻¹ and the kon stood at 139000 M⁻¹ s⁻¹. In assay [8], this molecule had an EC50 of 6.14 nM.

B4: HuEM0004-38-23 (antibody, human IgG1, kappa, L234A L235A, V domains shown)
VH: EVQLVQSGAEVKKPGASVKVSCKASGYTFTSFWMHWVRQAPGQGLEWIGNINPRNAATKYNEKFRSRVTLTADKSISTAYMELSRLRSDDTAVYYCAREDYDEIYYAMDSWGQGTTVTVSS
VL: ENVLTQSPATLSLSPGERATLSCSASSSVIYMYWFQQKPGQSPRVLIYDTSNLASGVPARFSGSGSGTDYTLTISSLEPEDFAVYYCQQWSTYPLTFGQGTKLEIKR
notes: humanized mAb638 with G55A
B4: the “cell-based CD39 ATPase inhibition assay” value in assay [3] was approximately 1 nM. Also, the “IC50 … cell-surface hCD39 ATPase activity” value in assay [4] is approximately 0.2 nM. Besides, the EC50 in [5] worked out at 8.36 nM; in assay [6] it was 5.47 nM; in assay [8], 7.18 nM. The molecule also returned a Kd in [7] of 2.55 nM. Also, the off-rate constant (koff) in assay [7] came out at 0.000365 s⁻¹. This molecule showed a kon in assay [7] of 143000 M⁻¹ s⁻¹.

B5: mAb629 (antibody, V domains shown)
VH: QVQLKQSGPGLVRPSQSLSITCTVSGFSLTRFGIHWVRQSPGKGLEWLGVIWGGGSTDYDAGFISRLTITKDHSKSQVLFKINSLEADDTAMYYCATKDDDYLEAWFAHWGQGTLVTVSA
VL: NIVMTQSPKSVSMSVGERVTLSCKASENVGTYVSWYQQKSERSPRLLIYGASSRYTGVPDRFTGSGSATDFTLTISSVQAEDLADYHCGQSYSYPYTFGGGTKLEIK
notes: as for B1
Turning to B5, the values for the EC50 in assay [1] and in assay [2] were 1.92 nM and 2.18 nM, respectively. Besides, the “IC50 (read off the curve), cell-surface huCD39 ATPase activity” value in assay [9] is approximately 0.07 nM.
